Data on one substance can be found in patent US20240199757A1.

The target of the experiment is T1, human NT5E expressed on MDA-MB-231 cells (human) (UniProt P21589).
T1 sequence (looked up): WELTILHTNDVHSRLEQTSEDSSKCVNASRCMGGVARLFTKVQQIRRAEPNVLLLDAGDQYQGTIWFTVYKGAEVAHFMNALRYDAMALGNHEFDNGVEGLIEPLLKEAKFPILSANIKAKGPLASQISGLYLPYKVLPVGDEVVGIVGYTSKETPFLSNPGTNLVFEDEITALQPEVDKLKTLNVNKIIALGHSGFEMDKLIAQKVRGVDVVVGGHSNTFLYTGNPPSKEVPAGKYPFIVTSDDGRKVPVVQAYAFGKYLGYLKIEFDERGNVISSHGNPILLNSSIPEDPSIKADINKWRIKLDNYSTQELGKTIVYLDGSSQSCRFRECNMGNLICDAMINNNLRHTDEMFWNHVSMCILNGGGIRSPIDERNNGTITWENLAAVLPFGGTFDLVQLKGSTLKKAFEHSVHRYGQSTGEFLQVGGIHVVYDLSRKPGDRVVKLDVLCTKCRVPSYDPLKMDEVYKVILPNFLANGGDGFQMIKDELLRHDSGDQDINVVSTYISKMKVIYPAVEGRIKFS
In words: cell-based or functional assay.

BMS986179 IgG (antibody) yielded an IC50 of NT5E activity on MDA-MB-231 cells, no ATP of 0.6 nM; an IC50 of NT5E activity on MDA-MB-231 cells, with ATP of 1.1 nM; a maximal inhibition of NT5E on MDA-MB-231 cells of 70%.
